# Reference: patent CN107793479A (SHANGHAI JIBEI BIOLOGICAL TECH CO LTD, dated 2018)
# T1: CD19抗原 (B lymphocyte antigen CD19) (human, UniProt P15391 20-291, limits assumed, biotin label in Examples 2-4 (site not stated))
# T1 construct: also called CD19-his; CD19-his-biotin; not shown: his tag
# T1 sequence (looked up): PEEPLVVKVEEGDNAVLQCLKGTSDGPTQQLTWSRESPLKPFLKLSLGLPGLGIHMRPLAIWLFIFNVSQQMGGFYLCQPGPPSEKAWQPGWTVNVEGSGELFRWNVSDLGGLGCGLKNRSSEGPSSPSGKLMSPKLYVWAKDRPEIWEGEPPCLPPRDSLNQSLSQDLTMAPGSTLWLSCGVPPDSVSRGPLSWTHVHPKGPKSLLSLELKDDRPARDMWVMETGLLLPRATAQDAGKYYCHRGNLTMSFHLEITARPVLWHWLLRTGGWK
# Biological target: T1, CD19抗原 (B lymphocyte antigen CD19)
# Assay: ELISA of periplasmic extract dilutions on a CD19-coated plate, OD450
row,binding result,Binder
1,binds,"Combo-5 (scFv in periplasmic extract) (scFv, Soluble scFv in E. coli periplasmic extract (PPE), not purified) scFv: EVKLQESGPGLVAPSQSLSVTCTVSGWSLEDYGVSWIRQSPRKGLEWLGGIIGSQTTYYLAGLKSRLTIIKDNSKSQVFLKMNSLQTDDTAIYYCAKHRYYGGSFDMDYWGQGTSVTVSSGGGGSGGGGSGGGGSDIQMTQTTSSLSASLGDRVTISCRASQDISKYLNWYQQKPDGTVKLLIYHTSRLHSGVPSRFSGSGSGTDYSLTISNLEQEDIATYFCQQGNTLPYTFGGGTKLEIT"
2,binds,"Combo-7 (scFv in periplasmic extract) (scFv, Soluble scFv in E. coli periplasmic extract (PPE), not purified) scFv: EVKLQESGPGLVAPSQSLSVTCTVSGWSLEDYGVSWIRQSPRKGLEWLGGIIGSQTTYYLAGLKSRLTIIKDNSKSQVFLKMNSLQTDDTAIYYCAKHWYYGGSFAMDYWGQGTSVTVSSGGGGSGGGGSGGGGSDIQMTQTTSSLSASLGDRVTISCRASQDISKYLNWYQQKPDGTVKLLIYHTSRLHSGVPSRFSGSGSGTDYSLTISNLEQEDIATYFCQQGNTLPYTFGGGTKLEIT"
3,binds,"Combo-14 (scFv in periplasmic extract) (scFv, Soluble scFv in E. coli periplasmic extract (PPE), not purified) scFv: EVKLQESGPGLVAPSQSLSVTCTVSGVSLPDYGVSWIRQSPRKGLEWLGVIWGSETTYYNSALKSRLTIIKDNSKSQVFLKMNSLQTDDTAIYYCAKHYYYGGSYAMDYWGQGTSVTVSSGGGGSGGGGSGGGGSDIQMTQTTSSLSASLGDRVTISCRASMDIKKYLNWYQQKPDGTVKLLIYHTSRLHSGVPSRFSGSGSGTDYSLTISNLEQEDIATYFCQQGKKAPLTFGGGTKLEIT"
4,binds,"Combo-9 (scFv in periplasmic extract) (scFv, Soluble scFv in E. coli periplasmic extract (PPE), not purified) scFv: EVKLQESGPGLVAPSQSLSVTCTVSGVSLPDYGVSWIRQPPRKGLEWLGVIWGSETTYYNSALKSRLTIIKDNSKSQVFLKMNSLQTDDTAIYYCAKHYYYGGSYAMDYWGQGTSVTVSSGGGGSGGGGSGGGGSDIQMTQTTSSLSASLGDRVTISCRASQPIRRYLNWYQQKPDGTVKLLIYQTSRLAWGVPSRFSGSGSGTDYSLTISNLEQEDIATYFCQQGKKAPLTFGGGTKLEIT"
5,binds,"Combo-6 (scFv in periplasmic extract) (scFv, Soluble scFv in E. coli periplasmic extract (PPE), not purified) scFv: EVKLQESGPGLVAPSQSLSVTCTVSGWSLEDYGVSWIRQSPRKGLEWLGVIWGSETTYYNSALKSRLTIIKDNSKSQVFLKMNSLQTDDTAIYYCAKHRYYGGSFDMDYWGQGTSVTVSSGGGGSGGGGSGGGGSDIQMTQTTSSLSASLGDRVTISCRASQDISKYLNWYQQKPDGTVKLLIYHTSRLHSGVPSRFSGSGSGTDYSLTISNLEQEDIATYFCQQGNTLPYTFGGGTKLEIT"
6,binds,"Combo-8 (scFv in periplasmic extract) (scFv, Soluble scFv in E. coli periplasmic extract (PPE), not purified) scFv: EVKLQESGPGLVAPSQSLSVTCTVSGWSLEDYGVSWIRQSPRKGLEWLGVIWGSETTYYNSALKSRLTIIKDNSKSQVFLKMNSLQTDDTAIYYCAKHWYYGGSFAMDYWGQGTSVTVSSGGGGSGGGGSGGGGSDIQMTQTTSSLSASLGDRVTISCRASQDISKYLNWYQQKPDGTVKLLIYHTSRLHSGVPSRFSGSGSGTDYSLTISNLEQEDIATYFCQQGNTLPYTFGGGTKLEIT"
7,binds,"Combo-10 (scFv in periplasmic extract) (scFv, Soluble scFv in E. coli periplasmic extract (PPE), not purified) scFv: EVKLQESGPGLVAPSQSLSVTCTVSGVSLPDYGVSWIRQPPRKGLEWLGVIWGSETTYYNSALKSRLTIIKDNSKSQVFLKMNSLQTDDTAIYYCAKHYYYGGSYAMDYWGQGTSVTVSSGGGGSGGGGSGGGGSDIQMTQTTSSLSASLGDRVTISCRASQPIRRYLNWYQQKPDGTVKLLIYHTSRLHSGVPSRFSGSGSGTDYSLTISNLEQEDIATYFCQQGKKAPLTFGGGTKLEIT"
8,binds,"Combo-13 (scFv in periplasmic extract) (scFv, Soluble scFv in E. coli periplasmic extract (PPE), not purified) scFv: EVKLQESGPGLVAPSQSLSVTCTVSGVSLPDYGVSWIRQSPRKGLEWLGVIWGSETTYYNSALKSRLTIIKDNSKSQVFLKMNSLQTDDTAIYYCAKHYYYGGSYAMDYWGQGTSVTVSSGGGGSGGGGSGGGGSDIQMTQTTSSLSASLGDRVTISCRASMDIKKYLNWYQQKPDGTVKLLIYQTSRLAWGVPSRFSGSGSGTDYSLTISNLEQEDIATYFCQQGKKAPLTFGGGTKLEIT"
